Experimental data taken from US20200024330A1.

What was measured:
Test in all cases: cell-based or functional assay
[1] = target: HIV-1 Env of isolate 94UG103 (pseudovirus) (HIV-1)
[2] = target: HIV-1 Env of isolate MGRM-Chronic-B-002 (HIV-1)
[3] = target: HIV-1 Env of isolate MGRM-AE-002 (pseudovirus) (HIV-1)
[4] = target: HIV-1 Env of isolate 92RW009 (clade A), on pseudovirus (HIV-1)
[5] = target: HIV-1 Env of isolate 92UG031 (pseudovirus) (HIV-1)
[6] = target: HIV-1 Env of isolate 92UG001 (subtype D), on pseudovirus (HIV-1)
[7] = target: HIV-1 Env of isolate MGRM-D-001 (subtype D), on pseudovirus (HIV-1)
[8] = target: HIV-1 Env of isolate MG RM-A-011 (pseudovirus) (HIV-1)
[9] = target: HIV-1 Env of isolate CAAN.A2 (HIV-1)
[10] = target: HIV-1 Env of isolate VLGCA1 (pseudovirus) (HIV-1)
[11] = target: HIV-1 Env of isolate 92UG046 (subtype D), on pseudovirus (HIV-1)
[12] = target: HIV-1 Env of isolate 92WR026 (pseudovirus) (HIV-1)
[13] = target: HIV-1 Env of isolate MG RM-A-009 (pseudovirus) (HIV-1)
[14] = target: HIV-1 Env of isolate MGRM-AE-006 (pseudovirus) (HIV-1)
[15] = target: HIV-1 Env of isolate MGRM-Chronic-B-003 (HIV-1)
[16] = target: HIV-1 Env of isolate 92WR020 (pseudovirus) (HIV-1)
[17] = target: HIV-1 Env of isolate MGRM-Chronic-B-004 (HIV-1)
[18] = target: HIV-1 Env of isolate 92RW008 (clade A), on pseudovirus (HIV-1)
[19] = target: HIV-1 Env of isolate 98CN009 (subtype CRF07_BC), on pseudovirus (HIV-1)
[20] = target: HIV-1 Env of isolate MG RM-A-005 (pseudovirus) (HIV-1)
[21] = target: HIV-1 Env of isolate APV_17 (HIV-1)
[22] = target: HIV-1 Env of isolate MGRM-D-004 (subtype D), on pseudovirus (HIV-1)
[23] = target: HIV-1 Env of isolate MGRM-D-008 (subtype D), on pseudovirus (HIV-1)
[24] = target: HIV-1 92RW020 envelope glycoprotein (Env) on pseudovirus (HIV-1)
[25] = target: HIV-1 Env of isolate MGRM-AE-001 (pseudovirus) (HIV-1)
[26] = target: HIV-1 Env of isolate 92UG037 (pseudovirus) (HIV-1)
[27] = target: HIV-1 Env of isolate 92UG005 (subtype D), on pseudovirus (HIV-1)
[28] = target: HIV-1 Env of isolate 92UG024 (subtype D), on pseudovirus (HIV-1)
[29] = target: HIV-1 Env of isolate MGRM-AE-004 (pseudovirus) (HIV-1)
[30] = target: HIV-1 Env of isolate MG RM-A-014 (pseudovirus) (HIV-1)
[31] = target: HIV-1 Env of isolate JRFL (HIV-1)
[32] = target: HIV-1 Env of isolate MG RM-A-013 (pseudovirus) (HIV-1)
[33] = target: HIV-1 Env of isolate MG RM-A-006 (pseudovirus) (HIV-1)
[34] = target: HIV-1 Env of isolate MG RM-A-012 (pseudovirus) (HIV-1)
[35] = target: HIV-1 92BR020 envelope glycoprotein (Env) on pseudovirus (HIV-1)
[36] = target: HIV-1 Env of isolate 93UG077 (pseudovirus) (HIV-1)
[37] = target: HIV-1 Env of isolate 98CN006 (subtype CRF08 BC), on pseudovirus (HIV-1)
[38] = target: HIV-1 Env of isolate MGRM-D-002 (subtype D), on pseudovirus (HIV-1)
[39] = target: HIV-1 Env of isolate MG RM-A-007 (pseudovirus) (HIV-1)
[40] = target: HIV-1 Env of isolate 94 KE 105 (pseudovirus) (HIV-1)
[41] = target: HIV-1 Env of isolate MGRM-AE-005 (pseudovirus) (HIV-1)
[42] = target: HIV-1 Env of isolate MGRM-AE-003 (pseudovirus) (HIV-1)
[43] = target: HIV-1 Env of isolate MG RM-A-010 (pseudovirus) (HIV-1)
[44] = target: HIV-1 Env of isolate MGRM-D-003 (subtype D), on pseudovirus (HIV-1)
[45] = target: HIV-1 Env of isolate MGRM-D-005 (subtype D), on pseudovirus (HIV-1)
[46] = target: HIV-1 Env of isolate CMU02 (pseudovirus) (HIV-1)
[47] = target: HIV-1 Env of isolate 92TH021 (pseudovirus) (HIV-1)
[48] = target: HIV-1 Env of isolate 6535.3 (HIV-1)
[49] = target: HIV-1 Env of isolate 93WR029 (pseudovirus) (HIV-1)
[50] = target: HIV-1 Env of isolate APV_13 (HIV-1)
[51] = target: HIV-1 Env of isolate MG RM-A-008 (pseudovirus) (HIV-1)
[52] = target: HIV-1 Env of isolate 92WR021 (pseudovirus) (HIV-1)
[53] = target: HIV-1 Env of isolate 92UG114 (subtype D), on pseudovirus (HIV-1)
[54] = target: HIV-1 Env of isolate 92WR024 (pseudovirus) (HIV-1)
[55] = target: HIV-1 Env of isolate MGRM-Chronic-B-008 (HIV-1)
[56] = target: HIV-1 Env of isolate 92BR020 (HIV-1)
[57] = target: HIV-1 Env of isolate MGRM-Chronic-B-001 (HIV-1)
[58] = target: HIV-1 Env of isolate 93TH305 (HIV-1)
[59] = target: HIV-1 Env of isolate APV_6 (HIV-1)

4970_K22 (PGT-144) (antibody), sequence (VH): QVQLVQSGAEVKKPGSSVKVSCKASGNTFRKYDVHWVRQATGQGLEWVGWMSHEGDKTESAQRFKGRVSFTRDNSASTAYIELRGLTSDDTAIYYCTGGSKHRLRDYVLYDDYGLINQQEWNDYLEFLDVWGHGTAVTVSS
4970_K22 (PGT-144) (antibody), sequence (VL): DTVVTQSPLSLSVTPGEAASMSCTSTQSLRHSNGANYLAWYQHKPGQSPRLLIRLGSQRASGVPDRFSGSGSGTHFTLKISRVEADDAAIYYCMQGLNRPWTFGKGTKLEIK

4970_K22 (PGT-144) (antibody) showed an IC50 (µg/mL), pseudovirus neutralization [1] of over 50 µg/mL, an IC50 [2] of over 50 µg/mL and an IC50 (µg/mL), pseudovirus neutralization [3] of over 50 µg/mL. The IC50, single-round pseudovirus neutralization [4] was 0.893 µg/mL, the IC50 (µg/mL), pseudovirus neutralization [5] was 2.17 µg/mL and the IC50, pseudovirus neutralization [6] was over 50 µg/mL. It also gave an IC50, pseudovirus neutralization [7] of over 50 µg/mL, an IC50 (µg/mL), pseudovirus neutralization [8] of over 50 µg/mL and an IC50 [9] of over 50 µg/mL. For the same substance, the IC50 (µg/mL), pseudovirus neutralization [10] was over 50 µg/mL, the IC50, pseudovirus neutralization [11] was over 50 µg/mL and the IC50 (µg/mL), pseudovirus neutralization [12] was 32.7 µg/mL. It also gave an IC50 (µg/mL), pseudovirus neutralization [13] of 2.83 µg/mL, an IC50 (µg/mL), pseudovirus neutralization [14] of over 50 µg/mL and an IC50 [15] of 7.41 µg/mL. The IC50 (µg/mL), pseudovirus neutralization [16] was over 50 µg/mL, the IC50 [17] was 9.41 µg/mL and the IC50, single-round pseudovirus neutralization [18] was over 50 µg/mL. The IC50, pseudovirus neutralization [19] was over 50 µg/mL, the IC50 (µg/mL), pseudovirus neutralization [20] was 18.6 µg/mL and the IC50 [21] was 10.3 µg/mL. It also gave an IC50, pseudovirus neutralization [22] of over 50 µg/mL, an IC50, pseudovirus neutralization [23] of 9.85 µg/mL and an IC50 (ug/ml), neutralizing activity [24] of over 10 µg/mL. For the same substance, the IC50 (µg/mL), pseudovirus neutralization [25] was over 50 µg/mL, the IC50 (µg/mL), pseudovirus neutralization [26] was 8.24 µg/mL and the IC50, pseudovirus neutralization [27] was over 50 µg/mL. It also gave an IC50, pseudovirus neutralization [28] of over 50 µg/mL, an IC50 (µg/mL), pseudovirus neutralization [29] of 0.104 µg/mL and an IC50 (µg/mL), pseudovirus neutralization [30] of over 50 µg/mL. It also gave an IC50 [31] of over 50 µg/mL, an IC50 (µg/mL), pseudovirus neutralization [32] of over 50 µg/mL and an IC50 (µg/mL), pseudovirus neutralization [33] of over 50 µg/mL. It also gave an IC50 (µg/mL), pseudovirus neutralization [34] of over 50 µg/mL, an IC50 (ug/ml), neutralizing activity [35] of over 10 µg/mL and an IC50 (µg/mL), pseudovirus neutralization [36] of over 50 µg/mL. For the same substance, the IC50, pseudovirus neutralization [37] was over 50 µg/mL, the IC50, pseudovirus neutralization [38] was over 50 µg/mL and the IC50 (µg/mL), pseudovirus neutralization [39] was over 50 µg/mL. For the same substance, the IC50 (µg/mL), pseudovirus neutralization [40] was 0.29 µg/mL, the IC50 (µg/mL), pseudovirus neutralization [41] was over 50 µg/mL and the IC50 (µg/mL), pseudovirus neutralization [42] was over 50 µg/mL. The IC50 (µg/mL), pseudovirus neutralization [43] was 2.79 µg/mL, the IC50, pseudovirus neutralization [44] was over 50 µg/mL and the IC50, pseudovirus neutralization [45] was 14.8 µg/mL. The IC50 (µg/mL), pseudovirus neutralization [46] was over 50 µg/mL, the IC50 (µg/mL), pseudovirus neutralization [47] was 0.052 µg/mL and the IC50 [48] was over 50 µg/mL. It also gave an IC50 (µg/mL), pseudovirus neutralization [49] of 4.39 µg/mL, an IC50 [50] of over 50 µg/mL and an IC50 (µg/mL), pseudovirus neutralization [51] of over 50 µg/mL. For the same substance, the IC50 (µg/mL), pseudovirus neutralization [52] was over 50 µg/mL, the IC50, pseudovirus neutralization [53] was over 50 µg/mL and the IC50 (µg/mL), pseudovirus neutralization [54] was 16.3 µg/mL. For the same substance, the IC50 [55] was over 50 µg/mL, the IC50 [56] was 44 µg/mL and the IC50 [57] was over 50 µg/mL. For the same substance, the IC50 [58] was over 50 µg/mL and the IC50 [59] was over 50 µg/mL.
